Assay results: patent US20240167012

What was measured:
[1] = test system: T1, gluten immunogenic peptide 26-mer from γ-gliadin
T1 sequence: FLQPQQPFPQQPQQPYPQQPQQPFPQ

[2] = test system: T2, gluten immunogenic peptide 33-mer from α-gliadin
T2 sequence: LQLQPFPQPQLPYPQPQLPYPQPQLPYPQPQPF

[3] = test system: T3, aspartic protease Rhodotorulapepsin
T3 sequence: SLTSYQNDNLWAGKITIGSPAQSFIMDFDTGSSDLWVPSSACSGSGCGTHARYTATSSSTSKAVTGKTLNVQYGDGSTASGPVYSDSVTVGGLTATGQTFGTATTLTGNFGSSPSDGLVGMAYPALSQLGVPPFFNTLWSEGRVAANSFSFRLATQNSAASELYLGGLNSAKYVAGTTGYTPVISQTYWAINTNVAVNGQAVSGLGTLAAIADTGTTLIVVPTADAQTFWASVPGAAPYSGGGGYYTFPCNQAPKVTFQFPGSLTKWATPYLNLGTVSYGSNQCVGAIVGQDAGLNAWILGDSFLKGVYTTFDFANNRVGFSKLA

Q: What does the source list for pepsin?
A: hydrolysis of gliadin 7.5 mg/ml, SDS-PAGE (pH 3.0, 3 h) (gliadin): when only 250 µg/ml of pepsin was included in the enzyme mixture, gliadin was not completely hydrolyzed; hydrolysis of gliadin, SDS-PAGE of residual gliadin (pH 3.0, 37° C., enzyme:gliadin 1:500) (gliadin): gliadin was not hydrolyzed by pepsin even after 150 minutes of reaction; relative activity to hydrolyze gliadin, ELISA of residual gliadin (pH 2.5, 1.5 h, pepsin 1 mg/ml) (gliadin): the relative activity of the simulated gastric acid environment to hydrolyze gliadin is 13%; hydrolysis of the 26-mer, RP-HPLC (pH 3.0 and pH 5.0) [1]: gluten immunogenic peptides 26-mer and 33-mer were not degraded after the same reaction time; hydrolysis of the 33-mer, RP-HPLC (pH 3.0 and pH 5.0) [2]: gluten immunogenic peptides 26-mer and 33-mer were not degraded after the same reaction time; resistance of the protease to pepsin hydrolysis, inferred from gliadin hydrolysis in the presence of pepsin [3]: the aspartic protease Rhodotorulapepsin is resistant to pepsin hydrolysis
